Where a SMILES comes first, the peptide text is derived from it. [ ]: non-standard residue; d: D form. Dolaproine = CO[C@@H]([C@@H]1CCCN1)[C@@H](C)C(=O)O; Dil = CC[C@H](C)[C@H](NC)[C@@H](CC(=O)O)OC; NMeV = CN[C@H](C(=O)O)C(C)C
T1: human FSHR (Homo sapiens, UniProt P23945)
T1 construct: a fragment containing the FSHR gene was obtained by PCR with the cDNA as a template and FSHR-F and FSHR-R as primers; expressed in transfected cells; host or cells: HEK293T
T1 sequence (P23945 18-695): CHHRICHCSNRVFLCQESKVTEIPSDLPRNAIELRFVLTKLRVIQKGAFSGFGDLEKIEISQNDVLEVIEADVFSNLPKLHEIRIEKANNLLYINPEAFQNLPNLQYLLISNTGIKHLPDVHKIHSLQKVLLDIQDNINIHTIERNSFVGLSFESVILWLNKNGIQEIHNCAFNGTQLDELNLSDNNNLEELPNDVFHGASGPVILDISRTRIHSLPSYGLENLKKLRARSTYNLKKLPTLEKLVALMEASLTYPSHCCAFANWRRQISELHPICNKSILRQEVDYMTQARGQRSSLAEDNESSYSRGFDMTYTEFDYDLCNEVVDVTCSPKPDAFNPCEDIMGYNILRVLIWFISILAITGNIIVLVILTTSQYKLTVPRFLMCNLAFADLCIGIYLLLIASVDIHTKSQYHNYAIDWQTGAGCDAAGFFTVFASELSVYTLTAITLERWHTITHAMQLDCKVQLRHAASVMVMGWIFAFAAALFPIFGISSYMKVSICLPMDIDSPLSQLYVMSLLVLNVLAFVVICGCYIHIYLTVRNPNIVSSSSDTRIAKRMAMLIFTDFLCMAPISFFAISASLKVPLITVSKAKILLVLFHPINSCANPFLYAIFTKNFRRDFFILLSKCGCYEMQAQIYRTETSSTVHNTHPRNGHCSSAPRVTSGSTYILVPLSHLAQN

B1: CAN001: Mouse anti-human FSHR monoclonal antibody; light chain SEQ ID NO: 3, heavy chain SEQ ID NO: 4 (protein)
light: MALPVTALLLPLALLLHAARPQIVLTQSPVIMSASPGEKVTLTCSASSSVSSSYLYWYQQKPGSSSKLWIYSTSNLASGVPARFSGSGSGTSYSLTISSMEAEDAASYFCHQWSSYPPTFGGGTKLEIKRADAAPTVSIFPPSSEQLTSGGASVVCFLNNFYPKDINVKWKIDGSERQNGVLNSWTDQDSKDSTYSMSSTLTLTKDEYERHNSYTCEATHKTSTSPIVKSFNRNEC
heavy: MEFGLSWVFLVALFRGVQCASQVQLQQPGAELVKPGASVNLSCKASGYTFTSYWMHWVKQRPGQGREWIGEINPRNGRTNYNEKFKSKATLTVDKSSSTAYMQLSSLTSEDSAVYCCARLSVGFAYWGQGTLVTVSAAKTTAPSVYPLAPVCGDTTGSSVTLGCLVKGYFPEPVTLTWNSGSLSSGVHTFPAVLQSDLYTLSSSVTVTSSTWPSQSITCNVAHPASSTKVDKKLEPRGPTIKPCPPCKCPAPNAAGGPSVFIFPPKIKDVLMISLSPIVTCVVVDVSEDDPDVQISWFVNNVEVHTAQTQTHREDYNSTLRVVSALPIQHQDWMSGKEFKCKVNNKDLGAPIERTISKPKGSVRAPQVYVLPPPEEEMTKKQVTLTCMVTDFMPEDIYVEWTNNGKTELNYKNTEPVLDSDGSYFMYSKLRVEKKNWVERNSYSCSVVHEGLHNHHTTKSFSRTPGK
modifications: Light chain amino acid sequence; Heavy chain amino acid sequence

How the values were obtained:
A2780 = assay: Cell killing assay, A2780; format: cell-based; conditions: A2780 human ovarian cancer cell line
Description: (§1) In this example, the anti-cancer effect of CAN001 antibody-drug conjugate was tested with CellTiter-Glo cell viability assay in a 96-well plate.
(§2) Human ovarian cancer cell lines: OVCAR-3, A2780, and 3A0, all from ATCC.
(§3) Cells were seeded in a 96-well cell culture plate with 1,000 cells per well, and the total amount of the culture medium per well was controlled to 200 μL. After the cells adhered to the wall, the cells were treated with corresponding drugs, and the drugs were withdrawn at different time points (0, 24 h, 48 h, 72 h and 96 h), and MTS detection solution (10 μL MTS reagent+190 μL complete medium) (MTS cell proliferation kit (colorimetry) from AmyJet Scientific) was added. Then, the 96-well cell culture plate was incubated in a CO2 cell incubator for about 2 h away from light. Then, the cell culture plate was taken out and was measured at a wavelength of 492 nm to determine the absorbances of different groups of cells.
(§4) % inhibition and IC50 of each compound were calculated with XLFit curve fitting software.

3AO = assay: Cell killing assay, 3AO; format: cell-based; conditions: 3AO human ovarian cancer cell line
Description: as §1, §2, §3, §4

OVCAR-3 = assay: Cell killing assay, OVCAR-3; format: cell-based; conditions: OVCAR-3 human ovarian cancer cell line
Description: as §1, §2, §3, §4

human FSHR = biological target: T1, human FSHR; assay: Flow cytometry analysis of CAN001 antibody on HEK293T cells expressing FSHR; format: binding; conditions: for positive stained rate of the HEK293T cells: HEK293T cells expressing FSHR
Description: HEK293T cells were transfected with pMSGβ3_FSHR plasmid to obtain HEK293T cells expressing FSHR as the experimental group. HEK293T cells were transfected with pmaxGFP(Lonza) to obtain HEK293T cells expressing GFP protein as the negative control. After incubation with the supernatant containing the CAN001 antibody obtained in Example 3, the cells of the experimental group and negative control were stained with the CAN001 antibody and then the cells were washed and incubated with APC conjugated goat anti-mouse IgG secondary antibody. Flow cytometry was done with BD calibur and analyzed with Cellquest software.
In order to further screen the best CAN001 supernatant, HEK293T cells were co-transfected with a mixture of plasmids pcDNA3.1_CAN001 HC and pcDNA3.1_CAN001 LC with different proportions (mass ratios of pcDNA3.1_CAN001 HC to pcDNA3.1_CAN001 LC from left to right in FIG. 3 were 1:2, 1:1 and 1:3 respectively) and 25 kD linear PEI polymer according to a mass ratio of vector to polymer of 1:3. Seventy-two hours after transfection, the supernatant was collected and used to stain HEK293T cells expressing FSHR, and HEK293T cells expressing GFP protein were used as the negative control. The steps were as described above. […] The mass ratio of pcDNA3.1_CAN001 HC to pcDNA3.1_CAN001 LC of 1:2 was selected to prepare the supernatant containing CAN001 antibody.

Molecule | IC50 (A2780) [nM] | IC50 (3AO) [nM] | IC50 (OVCAR-3) [nM] | staining of FSHR-expressing versus GFP-expressing HEK293T cells (human FSHR; supernatant containing CAN001 antibody, APC goat anti-mouse IgG secondary, GFP-expressing cells as negative control) | positive stained rate of the HEK293T cells (human FSHR; supernatant from mass ratio pcDNA3.1_CAN001 HC to LC 1:1) [%] | positive stained rate of the HEK293T cells (human FSHR; supernatant from mass ratio pcDNA3.1_CAN001 HC to LC 1:2) [%] | positive stained rate of the HEK293T cells (human FSHR; supernatant from mass ratio pcDNA3.1_CAN001 HC to LC 1:3) [%]
CC[C@H](C)[C@@H]([C@@H](CC(=O)N1CCC[C@H]1[C@H](OC)[C@@H](C)C(=O)N[C@@H](Cc1ccccc1)C(=O)O)OC)N(C)C(=O)[C@@H](NC(=O)[C@@H](NC)C(C)C)C(C)C [MMAF, monomethylauristatin F] (H-[NMeV]V[Dil][Dolaproine]F-OH) | 223 | 301 | 205 | – | – | – | –
B1 | – | – | > 1000 | specifically stained FHSR-expressing cells but not GFP-expressing cells | 30.02 | 38.3 | 34.75

Reference: US20240043548A1, “PREPARATION AND USE OF ANTI-FSHR ANTIBODY AND ANTIBODY-DRUG CONJUGATE THEREOF” (CANWELL (GZ) BIOTECH LIMITED, priority 2020, published 2024)
